Assay results from patent US20220025021A1 (BETH ISRAEL DEACONESS MEDICAL CENTER, published 2022).

What was measured:
Test in all cases: cell-based or functional assay
[1] = molecular target: HIV-1 pseudovirus X1193_c1 (HIV-1)
HIV-1 pseudovirus 263-8 = HIV-1 pseudovirus 263-8 (HIV-1)
[2] = molecular target: HIV-1 pseudovirus SC05.8C11.2344 (HIV-1)
[3] = molecular target: HIV-1 pseudovirus AC10.0.29 (HIV-1)
[4] = molecular target: HIV-1 pseudovirus Ce1176_A3 (HIV-1)
[5] = molecular target: HIV-1 pseudovirus 6952.v1.c20 (HIV-1)

Row | Binder | IC50 (neutralization in TZM.bl cells) [1] | IC80 (neutralization in TZM.bl cells) [1] | IC50 (neutralization in TZM.bl cells) (HIV-1 pseudovirus 263-8) | IC80 (neutralization in TZM.bl cells) (HIV-1 pseudovirus 263-8) | IC50 (neutralization in TZM.bl cells) [2] | IC80 (neutralization in TZM.bl cells) [2] | IC50 (neutralization in TZM.bl cells) [3] | IC80 (neutralization in TZM.bl cells) [3] | IC50 (neutralization in TZM.bl cells) [4] | IC80 (neutralization in TZM.bl cells) [4] | IC50 (neutralization in TZM.bl cells) [5] | IC80 (neutralization in TZM.bl cells) [5]
1 | MS-75 (antibody, V domains shown) VH: QVQLVQSGPEVRKPGTSVKVSCKASGNTLKTYDLHWVRSVPGQGLQWMGWISHEGDKKVIVERFKAKVTIDWDRSTNTAYLQLSGLTSGDTAVYYCAKGSKHRLRDYALYDDDGALNWAVDVDYLSNLEFWGQGTAVTVSS VL: DFVLTQSPHSLSVTPGESASISCKSSHSLIHGDRNNYLAWYVQKPGRSPQLLIYLASSRASGVPDRFSGSGSDKDFTLKISRVETEDVGTYYCMQGRESPWTFGQGTKVDIKR | 0.174 µg/mL | 0.591 µg/mL | 0.018 µg/mL | 0.086 µg/mL | 0.792 µg/mL | 3.72 µg/mL | 0.055 µg/mL | 0.442 µg/mL | 0.139 µg/mL | 2.79 µg/mL | 0.977 µg/mL | > 25 µg/mL
2 | MS-81 (antibody, V domains shown) VH: QVQLVQSGPEVRKPGTSVKVSCKAPGNTLKTYDLHWVRSVPGQGLQWMGWISHEGDKKVIVERFKAKVTIDWDRSTNTAYLELSGLTSGDTAVYYCAKGSKHRLRDYALYDDDGALNWAVDVDYLSNLEFWGQGTAVTVSS VL: DFVLTQSPHSLSVTPGESASISCKSSHSLIHGDRNNYLAWYVQKPGRSPQLLIYLASSRASGVPDRFSGSGSDKDFTLKISRVETEDVGTYYCMQGRESPWTFGQGTKVDIKR | 0.113 µg/mL | 0.512 µg/mL | 0.013 µg/mL | 0.037 µg/mL | 0.537 µg/mL | 2.01 µg/mL | 0.044 µg/mL | 0.324 µg/mL | 0.044 µg/mL | 0.646 µg/mL | 0.228 µg/mL | > 25 µg/mL
3 | MS-77 (antibody, V domains shown) VH: QVQLVQSGPEVRKPGTSVKVSCKAPGNTFKTYDLHWVRSVPGQGLQWMGWISHEGDKKVIVERFKAKVTIDWDRSTNTAYLQLSGLTSGDTAVYYCAKGSKHRLRDYALYDDDGALNWAVDVDYLSNLEFWGQGTAVTVSS VL: DFVLTQSPHSLSVTPGESASISCKSSHSLIHGDRNNYLAWYVQKPGRSPQLLIYLASSRASGVPDRFSGSGSDKDFTLKISRVETEDVGTYYCMQGRESPWTFGQGTKVDIKR | 0.109 µg/mL | 0.398 µg/mL | 0.012 µg/mL | 0.033 µg/mL | 0.516 µg/mL | 2.41 µg/mL | 0.036 µg/mL | 0.311 µg/mL | 0.067 µg/mL | 1.12 µg/mL | 0.236 µg/mL | 6.74 µg/mL
4 | MS-84 (antibody, V domains shown) VH: QVQLVQSGPEVRKPGTSVKVSCKAPGNTLKTYDLHWVRSVPGQGLQWMGWISHEGDKKVIVERFKAKVTIDWDRSTNTAYLQLSGLRSGDTAVYYCAKGSKHRLRDYALYDDDGALNWAVDVDYLSNLEFWGQGTAVTVSS VL: DFVLTQSPLSLPVTPGEPASISCKSSHSLIHGDRNNYLAWYVQKPGQSPQLLIYLASSRASGVPDRFSGSGSDKDFTLKISRVEAEDVGVYYCMQGRESPWTFGQGTKVDIKR | 0.058 µg/mL | 0.285 µg/mL | 0.006 µg/mL | 0.03 µg/mL | 0.481 µg/mL | 1.74 µg/mL | 0.052 µg/mL | 0.257 µg/mL | 0.018 µg/mL | 0.567 µg/mL | 0.237 µg/mL | 18.2 µg/mL
5 | MS-83 (antibody, V domains shown) VH: QVQLVQSGPEVRKPGTSVKVSCKAPGNTLKTYDLHWVRSVPGQGLQWMGWISHEGDKKVIVERFKAKVTIDWDRSTNTAYLQLSGLTSGDTAVYYCAKGSKHRLRDYALYDDEGALNWAVDVDYLSNLEFWGQGTAVTVSS VL: DFVLTQSPHSLSVTPGESASISCKSSHSLIHGDRNNYLAWYVQKPGRSPQLLIYLASSRASGVPDRFSGSGSDKDFTLKISRVETEDVGTYYCMQGRESPWTFGQGTKVDIKR | 0.061 µg/mL | 0.308 µg/mL | 0.007 µg/mL | 0.05 µg/mL | 0.381 µg/mL | 1.88 µg/mL | 0.038 µg/mL | 0.259 µg/mL | 0.029 µg/mL | 0.405 µg/mL | 0.126 µg/mL | 3.09 µg/mL
6 | MS-76 (antibody, V domains shown) VH: QVQLVQSGPEVRKPGTSVKVSCKAPGYTLKTYDLHWVRSVPGQGLQWMGWISHEGDKKVIVERFKAKVTIDWDRSTNTAYLQLSGLTSGDTAVYYCAKGSKHRLRDYALYDDDGALNWAVDVDYLSNLEFWGQGTAVTVSS VL: DFVLTQSPHSLSVTPGESASISCKSSHSLIHGDRNNYLAWYVQKPGRSPQLLIYLASSRASGVPDRFSGSGSDKDFTLKISRVETEDVGTYYCMQGRESPWTFGQGTKVDIKR | 0.126 µg/mL | 0.575 µg/mL | 0.015 µg/mL | 0.053 µg/mL | 0.587 µg/mL | 2.57 µg/mL | 0.047 µg/mL | 0.368 µg/mL | 0.082 µg/mL | 1.63 µg/mL | 0.844 µg/mL | > 25 µg/mL
7 | MS-78 (antibody, V domains shown) VH: QVQLVQSGPEVRKPGTSVKVSCKAPGNTLKTYDLHWVRSVPGQGLEWMGWISHEGDKKVIVERFKAKVTIDWDRSTNTAYLQLSGLTSGDTAVYYCAKGSKHRLRDYALYDDDGALNWAVDVDYLSNLEFWGQGTAVTVSS VL: DFVLTQSPHSLSVTPGESASISCKSSHSLIHGDRNNYLAWYVQKPGRSPQLLIYLASSRASGVPDRFSGSGSDKDFTLKISRVETEDVGTYYCMQGRESPWTFGQGTKVDIKR | 0.126 µg/mL | 0.452 µg/mL | 0.014 µg/mL | 0.053 µg/mL | 0.658 µg/mL | 2.26 µg/mL | 0.044 µg/mL | 0.225 µg/mL | 0.047 µg/mL | 0.837 µg/mL | 0.342 µg/mL | > 25 µg/mL
8 | MS-80 (antibody, V domains shown) VH: QVQLVQSGPEVRKPGTSVKVSCKAPGNTLKTYDLHWVRSVPGQGLQWMGWISHEGDKKVIVERFKAKVTIDRDRSTNTAYLQLSGLTSGDTAVYYCAKGSKHRLRDYALYDDDGALNWAVDVDYLSNLEFWGQGTAVTVSS VL: DFVLTQSPHSLSVTPGESASISCKSSHSLIHGDRNNYLAWYVQKPGRSPQLLIYLASSRASGVPDRFSGSGSDKDFTLKISRVETEDVGTYYCMQGRESPWTFGQGTKVDIKR | 0.137 µg/mL | 0.607 µg/mL | 0.033 µg/mL | 0.173 µg/mL | 0.898 µg/mL | 3.15 µg/mL | 0.054 µg/mL | 0.28 µg/mL | 1.11 µg/mL | > 25 µg/mL | > 25 µg/mL | > 25 µg/mL
9 | MS-79 (antibody, V domains shown) VH: QVQLVQSGPEVRKPGTSVKVSCKAPGNTLKTYDLHWVRSVPGQGLQWMGWISHEGDKKVIVERFKAKVTITWDRSTNTAYLQLSGLTSGDTAVYYCAKGSKHRLRDYALYDDDGALNWAVDVDYLSNLEFWGQGTAVTVSS VL: DFVLTQSPHSLSVTPGESASISCKSSHSLIHGDRNNYLAWYVQKPGRSPQLLIYLASSRASGVPDRFSGSGSDKDFTLKISRVETEDVGTYYCMQGRESPWTFGQGTKVDIKR | 0.109 µg/mL | 0.365 µg/mL | 0.018 µg/mL | 0.067 µg/mL | 0.593 µg/mL | 1.97 µg/mL | 0.056 µg/mL | 0.404 µg/mL | 0.473 µg/mL | 9.05 µg/mL | 13.2 µg/mL | > 25 µg/mL
10 | MS-82 (antibody, V domains shown) VH: QVQLVQSGPEVRKPGTSVKVSCKAPGNTLKTYDLHWVRSVPGQGLQWMGWISHEGDKKVIVERFKAKVTIDWDRSTNTAYLQLSGLRSGDTAVYYCAKGSKHRLRDYALYDDDGALNWAVDVDYLSNLEFWGQGTAVTVSS VL: DFVLTQSPHSLSVTPGESASISCKSSHSLIHGDRNNYLAWYVQKPGRSPQLLIYLASSRASGVPDRFSGSGSDKDFTLKISRVETEDVGTYYCMQGRESPWTFGQGTKVDIKR | 0.084 µg/mL | 0.411 µg/mL | 0.011 µg/mL | 0.033 µg/mL | 0.502 µg/mL | 1.8 µg/mL | 0.05 µg/mL | 0.267 µg/mL | 0.023 µg/mL | 0.635 µg/mL | 0.212 µg/mL | 23 µg/mL
